Measured values published in patent US20250011433A1 (published 2025).
Numbering of substitutions follows the chain as printed.

B1: G998 (Fc fusion)
chain: EPKSCDKTHTCPPCPAPELLGGPSVFLFPPKPKDTLMISRTPEVTCVVVDVEFEDPEVKFNWYVDGVEVHNAKTKPREEQYASTYRVVSVLTVLHQDWLNGKEYKCKVTNKALPAPIEKTISKAKGQPREPQVYTLPPSRDELTKNQVSLTCLVKGFYPSDIAVEWESNGQPENNYKTTPPVLDSDGSFFLYSKLTVDKSRWQQGNVFSCSVMHEALHNHYTQKSLSLSPGKERKCCVECPPCP
B2: G997 (Fc fusion)
chain: B1 chain with A82N
B3: G996 (Fc fusion)
chain: B1 chain with G21R, A82N

These binders were tested against C1q (UniProt P02745 23-245; P02746 28-253; P02747 29-245) (assay: ELISA).
Chain of C1q (P02745 23-245, chain 1 of 3): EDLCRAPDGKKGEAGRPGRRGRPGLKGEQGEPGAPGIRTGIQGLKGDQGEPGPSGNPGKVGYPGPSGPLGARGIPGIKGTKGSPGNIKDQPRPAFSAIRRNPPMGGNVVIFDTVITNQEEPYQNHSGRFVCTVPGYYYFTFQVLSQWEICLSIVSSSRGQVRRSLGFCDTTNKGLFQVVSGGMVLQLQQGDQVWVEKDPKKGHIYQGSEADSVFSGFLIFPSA
Chain of C1q (P02746 28-253, chain 2 of 3): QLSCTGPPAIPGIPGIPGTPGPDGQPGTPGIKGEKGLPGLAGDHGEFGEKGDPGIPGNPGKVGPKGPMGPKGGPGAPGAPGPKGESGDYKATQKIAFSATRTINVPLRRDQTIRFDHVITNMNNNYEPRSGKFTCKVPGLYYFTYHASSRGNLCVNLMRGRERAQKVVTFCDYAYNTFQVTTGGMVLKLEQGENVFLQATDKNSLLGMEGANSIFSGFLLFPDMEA
Chain of C1q (P02747 29-245, chain 3 of 3): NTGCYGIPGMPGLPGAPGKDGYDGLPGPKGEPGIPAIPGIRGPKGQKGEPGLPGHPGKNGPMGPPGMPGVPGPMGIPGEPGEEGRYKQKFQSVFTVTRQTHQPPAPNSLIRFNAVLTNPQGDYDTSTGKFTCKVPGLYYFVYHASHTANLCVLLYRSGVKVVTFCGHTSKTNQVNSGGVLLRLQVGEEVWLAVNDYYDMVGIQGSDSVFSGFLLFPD

EC50 [µg/mL] | Binder
0.334 | B1
0.0166 | B2
0.278 | B3
